# According to paper PMC6077723 (Proceedings of the National Academy of Sciences of the …, 2018):
# Legend:
# [1] = molecular target: MBP-HIGD1A chimera (hypoxia-inducible domain family member 1A with an N-terminal maltose binding protein tag) (human) (UniProt Q9Y241); assay: ITC
# [2] = molecular target: wild-type cytochrome c (human, UniProt P99999 1-105); assay: ITC
# wild-type cytochrome c, sequence (P99999 whole entry): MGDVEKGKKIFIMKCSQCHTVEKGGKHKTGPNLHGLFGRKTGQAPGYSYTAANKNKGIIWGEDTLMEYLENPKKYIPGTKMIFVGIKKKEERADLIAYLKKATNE
Molecule,stoichiometry N [1],binding result [2]
Y97pCMF cytochrome c (phosphomimetic mutant) (from UniProt P99999 1-105) (natural protein),1,
"MSTDTGVSLPSYEEDQGSKLIRKAKE (domain or fragment, human, UniProt Q9Y241 1-26, looked up) [N-terminal domain of HIGD1A (HIGD1A 1-26)]",,binds
